We go through 18 molecules from patent US20220402983A1 (Janssen / Centocor, published 2022).

*1 amine or outer side, *2 acyl side, *3 side chain or, on linkers, in order; H or OH if unused. Bridges are numbered along the chain shown (N, C = ends). Where no end group is shown, it is not given here. [ ]: non-standard residue; d: D form. dPhe(3,4-diOMe) = D-Phe with 3,4-dimethoxy, COc1ccc(C[C@@H](N[*:1])C(=O)[*:2])cc1OC; αMe2Nal = alpha-methyl-2-Nal, C[C@@](Cc1ccc2ccccc2c1)(N[*:1])C(=O)[*:2]; Phe(3,4-(OMe)2) = COc1ccc(C[C@H](N)C(=O)O)cc1OC; Trp(5-F) = N[C@@H](Cc1c[nH]c2ccc(F)cc12)C(=O)O; Trp(7-Me) = Cc1cccc2c(C[C@H](N)C(=O)O)c[nH]c12; 2Nal = N[C@@H](Cc1ccc2ccccc2c1)C(=O)O; AEF = NCCOc1ccc(C[C@H](N)C(=O)O)cc1; αMeF = C[C@](N)(Cc1ccccc1)C(=O)O; αMeE = C[C@](N)(CCC(=O)O)C(=O)O; β3hF = N[C@H](CC(=O)O)Cc1ccccc1; Pen = CC(C)(S)[C@H](N)C(=O)O; αMeK = C[C@](N)(CCCCN)C(=O)O; αMeC = C[C@](N)(CS)C(=O)O; dDap = NC[C@@H](N)C(=O)O; Ac5c = NC1(C(=O)O)CCCC1; Thp = NC1(C(=O)O)CCOCC1; Abu = CC[C@H](N)C(=O)O; Aib = CC(C)(N)C(=O)O; Ahx = NCCCCCC(=O)O

To fix the notation:
T1: human IL-23R (interleukin-23 receptor) (human, UniProt Q5VWK5 24-629)
T1 sequence (looked up): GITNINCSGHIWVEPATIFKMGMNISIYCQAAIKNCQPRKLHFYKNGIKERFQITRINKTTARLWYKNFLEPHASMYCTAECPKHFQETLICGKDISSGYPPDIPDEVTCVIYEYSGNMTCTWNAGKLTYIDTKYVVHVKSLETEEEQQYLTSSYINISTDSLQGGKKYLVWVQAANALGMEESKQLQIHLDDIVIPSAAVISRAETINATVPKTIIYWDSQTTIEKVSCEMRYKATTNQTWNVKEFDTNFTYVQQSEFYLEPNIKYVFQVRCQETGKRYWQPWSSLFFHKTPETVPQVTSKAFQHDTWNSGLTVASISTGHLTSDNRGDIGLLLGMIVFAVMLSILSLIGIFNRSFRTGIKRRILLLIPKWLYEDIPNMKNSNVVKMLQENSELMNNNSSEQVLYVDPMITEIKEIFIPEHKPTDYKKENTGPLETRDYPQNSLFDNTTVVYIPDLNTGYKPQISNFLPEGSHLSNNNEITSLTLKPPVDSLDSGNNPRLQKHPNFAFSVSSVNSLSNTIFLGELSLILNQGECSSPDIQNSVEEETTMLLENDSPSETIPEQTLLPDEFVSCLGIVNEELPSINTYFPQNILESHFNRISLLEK

B1: Compound No. 78 (peptide)
peptide: Ac-[dR][Abu]QTWQC[AEF][2Nal][Thp][αMeE]N[Phe(3,4-(OMe)2)]-NH2
modifications: thioether 2-7
B2: Compound No. 80 (peptide)
peptide: Ac-[dR][Abu]QTWQC[AEF][2Nal][Thp]EN[αMe2Nal]-NH2
modifications: thioether 2-7
B3: Compound No. 88 (peptide)
peptide: Ac-[dR][Pen]NTWK(Ac)[Pen][AEF][2Nal][Ac5c]EN[Thp]-NH2
modifications: disulfide 2-7
SMILES: CC(=O)NCCCC[C@@H]1NC(=O)[C@H](Cc2c[nH]c3ccccc23)NC(=O)[C@H]([C@@H](C)O)NC(=O)[C@H](CC(N)=O)NC(=O)[C@@H](NC(=O)[C@@H](CCCNC(=N)N)NC(C)=O)C(C)(C)SSC(C)(C)[C@@H](C(=O)N[C@@H](Cc2ccc(OCCN)cc2)C(=O)N[C@@H](Cc2ccc3ccccc3c2)C(=O)NC2(C(=O)N[C@@H](CCC(=O)O)C(=O)N[C@@H](CC(N)=O)C(=O)NC3(C(N)=O)CCOCC3)CCCC2)NC1=O
B4: Compound No. 87 (peptide)
peptide: XNTXQXFXKKNX
modifications: Ac-[Pen]-N-T-[W(7-Me)]-Q-[Pen]-Phe[4-(2-aminoethoxy)]-[2-Nal]-[a-MeLys]-[Lys(Ac)]-N-[THP]-NH2; cyclized: Pen-Pen disulfide bond
B5: Compound No. 79 (peptide)
peptide: Ac-[dR][Abu]QTWQC[AEF][2Nal][Thp][αMeE]N[dPhe(3,4-diOMe)]-NH2
modifications: thioether 2-7
B6: Compound No. 72 (peptide)
peptide: Ac-[Pen]N[dDap][Trp(7-Me)]K(Ac)[Pen][AEF][2Nal][αMeK]K(Ac)N[dL]-NH2
modifications: disulfide 1-6
SMILES: CC(=O)NCCCC[C@@H]1NC(=O)[C@H](Cc2c[nH]c3c(C)cccc23)NC(=O)[C@@H](CN)NC(=O)[C@H](CC(N)=O)NC(=O)[C@@H](NC(C)=O)C(C)(C)SSC(C)(C)[C@@H](C(=O)N[C@@H](Cc2ccc(OCCN)cc2)C(=O)N[C@@H](Cc2ccc3ccccc3c2)C(=O)N[C@@](C)(CCCCN)C(=O)N[C@@H](CCCCNC(C)=O)C(=O)N[C@@H](CC(N)=O)C(=O)N[C@H](CC(C)C)C(N)=O)NC1=O
B7: Compound No. 84 (peptide)
peptide: Ac-[Pen]QTWK(Ac)[Pen][AEF][2Nal][αMeK]K(Ac)N[Thp]-NH2
modifications: disulfide 1-6
SMILES: CC(=O)NCCCC[C@@H]1NC(=O)[C@H](Cc2c[nH]c3ccccc23)NC(=O)[C@H]([C@@H](C)O)NC(=O)[C@H](CCC(N)=O)NC(=O)[C@@H](NC(C)=O)C(C)(C)SSC(C)(C)[C@@H](C(=O)N[C@@H](Cc2ccc(OCCN)cc2)C(=O)N[C@@H](Cc2ccc3ccccc3c2)C(=O)N[C@@](C)(CCCCN)C(=O)N[C@@H](CCCCNC(C)=O)C(=O)N[C@@H](CC(N)=O)C(=O)NC2(C(N)=O)CCOCC2)NC1=O
B8: Compound No. 70 (peptide)
peptide: Ac-[Pen]NT[Trp(7-Me)]K(Ac)[Pen][AEF][2Nal][αMeK]K(Ac)N[Aib][Ahx]-NH2
modifications: disulfide 1-6
SMILES: CC(=O)NCCCC[C@@H]1NC(=O)[C@H](Cc2c[nH]c3c(C)cccc23)NC(=O)[C@H]([C@@H](C)O)NC(=O)[C@H](CC(N)=O)NC(=O)[C@@H](NC(C)=O)C(C)(C)SSC(C)(C)[C@@H](C(=O)N[C@@H](Cc2ccc(OCCN)cc2)C(=O)N[C@@H](Cc2ccc3ccccc3c2)C(=O)N[C@@](C)(CCCCN)C(=O)N[C@@H](CCCCNC(C)=O)C(=O)N[C@@H](CC(N)=O)C(=O)NC(C)(C)C(=O)NCCCCCC(N)=O)NC1=O
B9: Compound No. 71 (peptide)
peptide: Ac-[Pen]NT[Trp(7-Me)]K(Ac)[Pen][AEF][2Nal][αMeK]K(Ac)N[Aib][β3hF]-NH2
modifications: disulfide 1-6
SMILES: CC(=O)NCCCC[C@@H]1NC(=O)[C@H](Cc2c[nH]c3c(C)cccc23)NC(=O)[C@H]([C@@H](C)O)NC(=O)[C@H](CC(N)=O)NC(=O)[C@@H](NC(C)=O)C(C)(C)SSC(C)(C)[C@@H](C(=O)N[C@@H](Cc2ccc(OCCN)cc2)C(=O)N[C@@H](Cc2ccc3ccccc3c2)C(=O)N[C@@](C)(CCCCN)C(=O)N[C@@H](CCCCNC(C)=O)C(=O)N[C@@H](CC(N)=O)C(=O)NC(C)(C)C(=O)N[C@H](CC(N)=O)Cc2ccccc2)NC1=O
B10: Compound No. 73 (peptide)
peptide: Ac-[Pen]N[dK][Trp(7-Me)]K(Ac)[Pen][AEF][2Nal][αMeK]K(Ac)N[dL]-NH2
modifications: disulfide 1-6
SMILES: CC(=O)NCCCC[C@@H]1NC(=O)[C@H](Cc2c[nH]c3c(C)cccc23)NC(=O)[C@@H](CCCCN)NC(=O)[C@H](CC(N)=O)NC(=O)[C@@H](NC(C)=O)C(C)(C)SSC(C)(C)[C@@H](C(=O)N[C@@H](Cc2ccc(OCCN)cc2)C(=O)N[C@@H](Cc2ccc3ccccc3c2)C(=O)N[C@@](C)(CCCCN)C(=O)N[C@@H](CCCCNC(C)=O)C(=O)N[C@@H](CC(N)=O)C(=O)N[C@H](CC(C)C)C(N)=O)NC1=O
B11: Compound No. 83 (peptide)
peptide: [dR][Abu]QTWQ[αMeC][AEF][2Nal][Thp]EN[αMeF]-NH2
modifications: thioether 2-7; not fully specified (N-terminus); printed as pr-[(D)Arg]-[Abu]-Q-T-W-Q-[aMeCys]-Phe[4-(2-aminoethoxy)]-[2-Nal]-[THP]-E-N-[a-MePhe]-NH2
B12: Compound No. 90 (peptide)
peptide: Ac-[dR][Pen]NT[Trp(7-Me)]Q[Pen][AEF][2Nal][Thp]EN[Thp]-NH2
modifications: disulfide 2-7
SMILES: CC(=O)N[C@H](CCCNC(=N)N)C(=O)N[C@@H]1C(=O)N[C@@H](CC(N)=O)C(=O)N[C@@H]([C@@H](C)O)C(=O)N[C@@H](Cc2c[nH]c3c(C)cccc23)C(=O)N[C@@H](CCC(N)=O)C(=O)N[C@H](C(=O)N[C@@H](Cc2ccc(OCCN)cc2)C(=O)N[C@@H](Cc2ccc3ccccc3c2)C(=O)NC2(C(=O)N[C@@H](CCC(=O)O)C(=O)N[C@@H](CC(N)=O)C(=O)NC3(C(N)=O)CCOCC3)CCOCC2)C(C)(C)SSC1(C)C
B13: Compound No. 81 (peptide)
peptide: Ac-[dR][Abu]QTWQC[AEF][2Nal][Thp][αMeE]N[Trp(5-F)]-NH2
modifications: thioether 2-7
B14: Compound No. 89 (peptide)
peptide: XNTXQXFXKKNF
modifications: Ac-[Pen]-N-T-[W(7-Me)]-Q-[Pen]-Phe[4-(2-aminoethoxy)]-[2-Nal]-[a-MeLys]-[Lys(Ac)]-N-[a-MePhe]-NH2; cyclized: Pen-Pen disulfide bond
B15: Compound No. 74 (peptide)
peptide: Ac-[Pen]N[dD][Trp(7-Me)]K(Ac)[Pen][AEF][2Nal][αMeK]K(Ac)N[dL]-NH2
modifications: disulfide 1-6
SMILES: CC(=O)NCCCC[C@@H]1NC(=O)[C@H](Cc2c[nH]c3c(C)cccc23)NC(=O)[C@@H](CC(=O)O)NC(=O)[C@H](CC(N)=O)NC(=O)[C@@H](NC(C)=O)C(C)(C)SSC(C)(C)[C@@H](C(=O)N[C@@H](Cc2ccc(OCCN)cc2)C(=O)N[C@@H](Cc2ccc3ccccc3c2)C(=O)N[C@@](C)(CCCCN)C(=O)N[C@@H](CCCCNC(C)=O)C(=O)N[C@@H](CC(N)=O)C(=O)N[C@H](CC(C)C)C(N)=O)NC1=O
B16: Compound No. 91 (peptide)
peptide: Ac-[dR][Pen]NT[Trp(7-Me)]Q[Pen][AEF][2Nal][Thp]EN[αMeF]-NH2
modifications: disulfide 2-7
SMILES: CC(=O)N[C@H](CCCNC(=N)N)C(=O)N[C@@H]1C(=O)N[C@@H](CC(N)=O)C(=O)N[C@@H]([C@@H](C)O)C(=O)N[C@@H](Cc2c[nH]c3c(C)cccc23)C(=O)N[C@@H](CCC(N)=O)C(=O)N[C@H](C(=O)N[C@@H](Cc2ccc(OCCN)cc2)C(=O)N[C@@H](Cc2ccc3ccccc3c2)C(=O)NC2(C(=O)N[C@@H](CCC(=O)O)C(=O)N[C@@H](CC(N)=O)C(=O)N[C@@](C)(Cc3ccccc3)C(N)=O)CCOCC2)C(C)(C)SSC1(C)C
B17: Compound No. 82 (peptide)
peptide: Ac-[Pen]QTWK(Ac)[Pen][AEF][2Nal][αMeK]K(Ac)N[αMeF]-NH2
modifications: disulfide 1-6
SMILES: CC(=O)NCCCC[C@@H]1NC(=O)[C@H](Cc2c[nH]c3ccccc23)NC(=O)[C@H]([C@@H](C)O)NC(=O)[C@H](CCC(N)=O)NC(=O)[C@@H](NC(C)=O)C(C)(C)SSC(C)(C)[C@@H](C(=O)N[C@@H](Cc2ccc(OCCN)cc2)C(=O)N[C@@H](Cc2ccc3ccccc3c2)C(=O)N[C@@](C)(CCCCN)C(=O)N[C@@H](CCCCNC(C)=O)C(=O)N[C@@H](CC(N)=O)C(=O)N[C@@](C)(Cc2ccccc2)C(N)=O)NC1=O
B18: Compound No. 85 (peptide)
peptide: [dR][Abu]QTWQC[AEF][2Nal][Thp]EN[αMeF]-NH2
modifications: thioether 2-7; not fully specified (N-terminus); printed as pr-[(D)Arg]-[Abu]-Q-T-W-Q-[Cys]-Phe[4-(2-aminoethoxy)]-[2-Nal]-[THP]-E-N-[a-MePhe]-NH2

The target in the experiment is T1, human IL-23R (interleukin-23 receptor). Kind of experiment: cell-based or functional assay.
On to B1, for which the “PBMC pSTAT3 IC50 (nM)” value is 31 nM.

For B2, the “PBMC pSTAT3 IC50 (nM)” value was 46 nM.

As to B3, the “PBMC pSTAT3 IC50 (nM)” value was found to be 3.7 nM.

For the molecule B4, the “PBMC pSTAT3 IC50 (nM)” value worked out at 3.6 nM.

In the case of B5, the “PBMC pSTAT3 IC50 (nM)” value is 25 nM.

For B6, the “pStat3 HTRF (nM), IC50, DB cells IL23R pSTAT3 cell assay” value (“pStat3 HTRF (nM), IC50” below) came out at 52.6 nM.

With B7, the “PBMC pSTAT3 IC50 (nM)” value is 54 nM.

Regarding B8, the “pStat3 HTRF (nM), IC50” value worked out at 1.22 nM.

As for B9, the “pStat3 HTRF (nM), IC50” value stood at 3.39 nM.

As for B10, the “pStat3 HTRF (nM), IC50” value stood at 51.1 nM.

As to B11, the “PBMC pSTAT3 IC50 (nM)” value is 33 nM.

For the molecule B12, the “PBMC pSTAT3 IC50 (nM)” value worked out at 3.7 nM.

For B13, the “PBMC pSTAT3 IC50 (nM)” value was 30 nM.

B14: the “PBMC pSTAT3 IC50 (nM)” value stood at 12 nM.

With B15, the “pStat3 HTRF (nM), IC50” value came out at 73.1 nM.

For B16, the “PBMC pSTAT3 IC50 (nM)” value stood at 4.1 nM.

As for B17, the “PBMC pSTAT3 IC50 (nM)” value turned out to be 54 nM.

With B18, the “PBMC pSTAT3 IC50 (nM)” value was 7.6 nM.
